This assay concerns the target Dicer (endogenous human Dicer) (human (endogenous in HeLa and HEK 293T)) (UniProt Q9UPY3). In words: proximity ligation.

Some results are limits rather than exact numbers.

PLA proximity events in a cell (highest) (proximity events per cell) data for 1 substance are collected here from publication doi:10.1101/2023.05.24.542197.

Chain of UniProt Q9UPY3 (Q9UPY3 whole entry): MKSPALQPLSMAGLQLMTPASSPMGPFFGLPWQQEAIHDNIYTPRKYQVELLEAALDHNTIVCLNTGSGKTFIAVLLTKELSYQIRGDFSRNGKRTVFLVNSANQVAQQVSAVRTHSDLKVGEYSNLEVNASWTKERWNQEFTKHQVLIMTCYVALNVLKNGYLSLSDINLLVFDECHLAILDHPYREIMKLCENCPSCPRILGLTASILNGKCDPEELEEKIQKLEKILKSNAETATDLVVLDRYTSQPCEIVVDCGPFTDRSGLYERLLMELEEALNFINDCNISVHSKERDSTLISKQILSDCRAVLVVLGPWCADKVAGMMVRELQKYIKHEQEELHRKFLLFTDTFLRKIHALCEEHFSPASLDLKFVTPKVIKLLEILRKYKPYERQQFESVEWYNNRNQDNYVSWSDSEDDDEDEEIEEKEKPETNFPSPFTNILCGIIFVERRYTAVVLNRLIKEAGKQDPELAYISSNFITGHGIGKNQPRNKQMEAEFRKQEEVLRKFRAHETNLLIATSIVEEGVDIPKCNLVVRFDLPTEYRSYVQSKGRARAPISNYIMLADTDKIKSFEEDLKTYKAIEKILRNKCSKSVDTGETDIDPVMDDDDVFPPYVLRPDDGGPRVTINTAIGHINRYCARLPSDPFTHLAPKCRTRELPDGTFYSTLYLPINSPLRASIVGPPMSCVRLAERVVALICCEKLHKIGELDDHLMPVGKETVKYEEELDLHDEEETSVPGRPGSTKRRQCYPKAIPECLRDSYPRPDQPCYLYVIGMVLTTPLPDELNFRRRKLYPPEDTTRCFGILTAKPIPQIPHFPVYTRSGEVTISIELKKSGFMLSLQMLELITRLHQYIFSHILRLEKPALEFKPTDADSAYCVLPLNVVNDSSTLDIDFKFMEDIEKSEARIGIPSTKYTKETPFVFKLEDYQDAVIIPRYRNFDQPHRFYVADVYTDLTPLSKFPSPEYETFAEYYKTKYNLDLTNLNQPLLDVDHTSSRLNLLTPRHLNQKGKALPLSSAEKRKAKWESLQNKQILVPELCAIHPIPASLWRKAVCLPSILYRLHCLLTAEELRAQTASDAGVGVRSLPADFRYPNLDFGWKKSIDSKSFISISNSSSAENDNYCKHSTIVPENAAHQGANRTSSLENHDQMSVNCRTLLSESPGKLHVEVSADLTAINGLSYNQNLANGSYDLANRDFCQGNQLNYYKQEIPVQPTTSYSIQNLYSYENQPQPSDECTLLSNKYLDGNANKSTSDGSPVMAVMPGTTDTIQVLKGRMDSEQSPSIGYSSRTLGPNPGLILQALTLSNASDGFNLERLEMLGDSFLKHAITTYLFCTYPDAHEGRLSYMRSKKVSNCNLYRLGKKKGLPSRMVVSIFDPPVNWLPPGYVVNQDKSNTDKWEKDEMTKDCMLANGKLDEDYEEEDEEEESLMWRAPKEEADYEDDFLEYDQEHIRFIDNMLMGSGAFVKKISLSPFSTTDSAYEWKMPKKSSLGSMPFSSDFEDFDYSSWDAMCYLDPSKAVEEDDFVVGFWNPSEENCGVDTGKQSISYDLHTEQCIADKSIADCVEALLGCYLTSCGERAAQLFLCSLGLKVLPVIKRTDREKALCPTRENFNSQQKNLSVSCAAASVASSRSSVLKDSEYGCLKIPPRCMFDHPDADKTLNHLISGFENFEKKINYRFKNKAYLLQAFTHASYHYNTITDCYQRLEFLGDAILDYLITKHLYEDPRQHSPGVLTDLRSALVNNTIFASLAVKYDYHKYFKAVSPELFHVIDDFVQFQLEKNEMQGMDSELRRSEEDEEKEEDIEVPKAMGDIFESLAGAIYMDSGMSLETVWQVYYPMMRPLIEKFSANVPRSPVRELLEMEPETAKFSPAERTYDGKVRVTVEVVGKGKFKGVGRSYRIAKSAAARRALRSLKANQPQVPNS

Take “Flag-Gag (pCI-Neo-Flag-Gag) (natural protein)”: the PLA proximity events in a cell (highest) (proximity events per cell) is less than 36.
